T1: Smc6 (Walker B mutant E1048Q) (S. cerevisiae, UniProt Q12749 1-1114, E1048Q, BS3-crosslinked within the holo-complex)
T1 sequence: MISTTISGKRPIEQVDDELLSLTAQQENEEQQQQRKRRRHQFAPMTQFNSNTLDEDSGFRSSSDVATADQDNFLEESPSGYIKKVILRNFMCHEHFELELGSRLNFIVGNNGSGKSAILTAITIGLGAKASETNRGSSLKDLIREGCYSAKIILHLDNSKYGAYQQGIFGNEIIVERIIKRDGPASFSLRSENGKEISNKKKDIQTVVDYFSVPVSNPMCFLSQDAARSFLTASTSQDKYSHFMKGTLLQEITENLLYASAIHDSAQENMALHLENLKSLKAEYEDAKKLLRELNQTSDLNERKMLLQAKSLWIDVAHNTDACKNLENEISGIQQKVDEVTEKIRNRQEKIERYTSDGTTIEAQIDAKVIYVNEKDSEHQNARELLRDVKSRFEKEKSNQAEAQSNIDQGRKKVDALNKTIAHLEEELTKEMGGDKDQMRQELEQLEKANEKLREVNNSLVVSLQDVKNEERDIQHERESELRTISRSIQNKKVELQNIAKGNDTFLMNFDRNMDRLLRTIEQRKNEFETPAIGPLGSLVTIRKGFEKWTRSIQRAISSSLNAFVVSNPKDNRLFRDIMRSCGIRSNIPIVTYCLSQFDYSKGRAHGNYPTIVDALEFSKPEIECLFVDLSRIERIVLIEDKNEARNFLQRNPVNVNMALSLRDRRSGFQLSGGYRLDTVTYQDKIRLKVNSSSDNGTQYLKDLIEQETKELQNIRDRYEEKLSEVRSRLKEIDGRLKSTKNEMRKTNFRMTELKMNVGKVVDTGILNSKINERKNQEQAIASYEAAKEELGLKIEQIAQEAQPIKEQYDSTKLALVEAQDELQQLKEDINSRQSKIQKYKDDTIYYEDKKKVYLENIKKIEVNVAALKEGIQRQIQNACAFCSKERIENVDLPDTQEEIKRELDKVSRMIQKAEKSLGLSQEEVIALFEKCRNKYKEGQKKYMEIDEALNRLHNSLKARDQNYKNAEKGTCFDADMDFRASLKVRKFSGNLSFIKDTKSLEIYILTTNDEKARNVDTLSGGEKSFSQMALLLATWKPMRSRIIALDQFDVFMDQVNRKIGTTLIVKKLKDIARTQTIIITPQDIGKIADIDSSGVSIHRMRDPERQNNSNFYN

B1: Smc5 (Walker B mutant E1015Q) (natural protein, S. cerevisiae)
chain: MTSLIDLGRYVERTHHGEDTEPRSKRVKIAKPDLSSFQPGSIIKIRLQDFVTYTLTEFNLSPSLNMIIGPNGSGKSTFVCAVCLGLAGKPEYIGRSKKVEDFIKNGQDVSKIEITLKNSPNVTDIEYIDARDETIKITRIITRSKRRSDYLINDYQVSESVVKTLVAQLNIQLDNLCQFLSQERVEEFARLKSVKLLVETIRSIDASLLDVLDELRELQGNEQSLQKDLDFKKAKIVHLRQESDKLRKSVESLRDFQNKKGEIELHSQLLPYVKVKDHKEKLNIYKEEYERAKANLRAILKDKKPFANTKKTLENQVEELTEKCSLKTDEFLKAKEKINEIFEKLNTIRDEVIKKKNQNEYYRGRTKKLQATIISTKEDFLRSQEILAQTHLPEKSVFEDIDIKRKEIINKEGEIRDLISEIDAKANAINHEMRSIQRQAESKTKSLTTTDKIGILNQDQDLKEVRDAVLMVREHPEMKDKILEPPIMTVSAINAQFAAYLAQCVDYNTSKALTVVDSDSYKLFANPILDKFKVNLRELSSADTTPPVPAETVRDLGFEGYLSDFITGDKRVMKMLCQTSKIHTIPVSRRELTPAQIKKLITPRPNGKILFKRIIHGNRLVDIKQSAYGSKQVFPTDVSIKQTNFYQGSIMSNEQKIRIENEIINLKNEYNDRKSTLDALSNQKSGYRHELSELASKNDDINREAHQLNEIRKKYTMRKSTIETLREKLDQLKREARKDVSQKIKDIDDQIQQLLLKQRHLLSKMASSMKSLKNCQKELISTQILQFEAQNMDVSMNDVIGFFNEREADLKSQYEDKKKFVKEMRDTPEFQSWMREIRSYDQDTKEKLNKVAEKYEEEGNFNLSFVQDVLDKLESEIAMVNHDESAVTILDQVTAELRELEHTVPQQSKDLETIKAKLKEDHAVLEPKLDDIVSKISARFARLFNNVGSAGAVRLEKPKDYAEWKIEIMVKFRDNAPLKKLDSHTQSGGERAVSTVLYMIALQEFTSAPFRVVDQINQGMDSRNERIVHKAMVENACAENTSQYFLITPKLLTGLHYHEKMRIHCVMAGSWIPNPSEDPKMIHFGETSNYSFD
modifications: BS3-crosslinked within the holo-complex
B2: Nse2 (Mms21) (natural protein, S. cerevisiae)
chain: ALNDNPIPKSVPLHPKSGKYFHNLHARDLSNIYQQCYKQIDETINQLVDSTSPSTIGIEEQVADITSTYKLLSTYESESNSFDEHIKDLKKNFKQSSDACPQIDLSTWDKYRTGELTAPKLSELYLNMPTPEPATMVNNTDTLKILKVLPYIWNDPTCVIPDLQNPADEDDLQIEGGKIELTCPITCKPYEAPLISRKCNHVFDRDGIQNYLQGYTTRDCPQAACSQVVSMRDFVRDPIMELRCKIAKMKESQEQDKRSSQAIDVL
modifications: BS3-crosslinked within the holo-complex
B3: Nse1 (natural protein, S. cerevisiae)
chain: MEVHEEQVSAPVTGDATAKYLLQYILSARGICHENALILALMRLETDASTLNTEWSIQQWVDKLNDYINAINVKLNLLGYKIIRINHGIGRNAVTLKAKQNFESFEDNTAIRAHNNDYAVLQSIVLPESNRFFVYVNLASTEETKLATRFNQNEIEFMKWAIEQFMISGETIVEGPALETSIIVKEVNRILVAATGDSNLAKWRKFSTFTVGSTNLFQFQELTATDIEDLLLRLCELKWFYRTQEGKFGIDLRCIAELEEYLTSMYNLNTCQNCHKLAIQGVRCGNESCREENEETGENSLSQIWHVDCFKHYITHVSKNCDRCGSSLITEGVYVI
modifications: BS3-crosslinked within the holo-complex
B4: Nse4 (HALO-tagged) (natural protein, S. cerevisiae)
chain: MSSTVISRKRRNSTVTEPDSSGETRKQKKSRSDEKSSSSKDGDPQLEFKVLQGYRDLESEMHKGRAQVTRTGDIGVAMDNLNAVDSLFNKVIGIKNNGLFAHDARAMVSISELAQISVRNLKFDDSRSMVNLENIVNSLKRYMLKEHFKLNNIAENRNDLTLAADEQSAADQQEESDGDIDRTPDDNHTDKATSSFKATSMRHSYLQQFSHYNEFSQFNWFRIGALYNTISKNAPITDHLMGPLSIEKKPRVLTQRRRNNDQVGEKITAEKITQHSLNSTQQETTPEQVKKCFKKLSKKLGPEGSINLFKFIIDPNSFSRSIENLFYTSFLIKEGKLLMEHDEEGLPTIKIKQSISHTDSRSKEIERQRRRAAHQNHIIFQMDMPTWRKLIKKYNITSPFLD
modifications: BS3-crosslinked within the holo-complex

What was measured:
Assay in all cases: cryo-EM structure
[1] = biological target: T1, Smc6 (Walker B mutant E1048Q)
[2] = biological target: B1
[3] = biological target: B4

binding result [1] | binding result [2] | binding result [3] | Binder
binds | – | – | B1
binds | binds | – | B2
– | binds | binds | B3
binds | binds | – | B4

Source: publication doi:10.1101/2021.11.25.470006 (bioRxiv, 2021)
